Experimental data from US12662676B2, “Aptamer nucleic acid molecule, and complex and application thereof” (EAST CHINA UNIVERSITY OF SCIENCE AND TECHNOLOGY, priority 2019, dated 2026).

Experiments:
[1] = system: BL21(DE3, Star) E. coli strain expressing F30-Pepper-1; assay: Labeling of bacterial RNA; assay type: cell-based; settings: 2 μM III-3 in PBS, 4 hours after IPTG induction
Source text: In order to test the effect of Pepper-III-3 in bacteria, a bacterial expression plasmid expressing F30-Pepper-1 was constructed. Primers were used to amplify F30-Pepper-1 in Example 2. Primers were used to amplify pET28a to remove the promoter and multiple cloning site regions. The obtained F30-Pepper-1 fragment and the linearized pET28a were ligated according to the commonly used experimental method (4). The obtained recombinant plasmid was named pET28a-T7-F30-Pepper-1.
The recombinant plasmid pET28a-T7-F30-Pepper-1was transformed into BL21(DE3, Star) E. coli strain. A single clone was picked and cultured at 37° C. to an OD600 around 0.2 before addition of 1 mM IPTG to induce the expression of F30-Pepper-1. 4 hours after induction, the bacteria were harvested and resuspended in PBS solution containing 2 μM III-3. BL21 (DE3, Star) E. coli transformed with pET28a empty vector was used as the control.

[2] = system: BY4741 strain expressing F30-Pepper-1; assay: Labeling of yeast RNA; assay type: cell-based; settings: 2 μM III-3 in PBS, 10 hours after galactose induction
Source text: In order to test the effect of Pepper-III-3 in yeast, a yeast expression plasmid expressing F30-Pepper-1 was constructed. The F30-Pepper-1 DNA fragment in Example 2 was amplified using primers, and the amplified F30-Pepper-1 fragment was inserted into the pYES2.1TOPO TA vector according to the commonly used experimental method (4). The obtained recombinant plasmid was named pYES2.1-F30-Pepper-1.
The recombinant plasmid pYES2.1-F30-Pepper-1 was transformed into BY4741 strain, and a single clone was picked and cultured at 30° C. to an OD600=0.1 before addition of 1 mM galactose to induce the expression of F30-Pepper-1. 10 hours after induction, the yeast cells were harvested and resuspended in PBS containing 2 μM III-3. The untreated BY4741 strain was used as the control.

[3] = Fluorescence activation of III-3 fluorophore by Pepper aptamers and mutants; assay type: biochemical; settings: 1 μM III-3 with 5 μM RNA
Protocol: Preparation of Pepper or Pepper mutant aptamer according to the commonly used experimental method (1). 5 μM aptamer and 1 μM fluorophore were incubated in the detection buffer (40 mM HEPES, pH 7.4, 125 mM KCl, 5 mM MgCl2, 5% DMSO). The maximal excitation and emission peaks of the aptamer-fluorophore complexes were determined using a Synergy Neo2 multifunctional microplate reader. The fluorescence intensities of the aptamer-fluorophore complexes at the maximal excitation and emission peaks were determined using a Synergy Neo2 multifunctional microplate reader. The control sample (1 μM fluorophore without aptamer) was also measured under the same conditions. Then the ratios of fluorescence intensity were calculated. For example, the fluorescence maximal excitation and emission peaks of the complex of 5 μM F30-Pepper-2 and 1 μM III-3 fluorophore are 485 nm and 530 nm, respectively. The fluorescence intensity of the complex at 485±10 nm excitation and 530 nm±10 nm emission was 36,000, the fluorescence intensity of the control sample (1 μM III-3 fluorophore only) under the same detection conditions was 10. Thus, the activation ratio of F30-Pepper-2 aptamer on III-3 fluorophore was 3,600-fold.
In order to detect the fluorescence activation of III-3 fluorophore by different Pepper mutant, the Pepper-1 sequence in F30-Pepper-1 was mutated according to Table 1. […] 1 μM III-3 was incubated with […] RNA and their fluorescence activation folds were determined according to the commonly used experimental method (5). […] In summary, many Pepper mutants containing single and multiple mutants still retain the ability to activate the fluorescence of III-3 fluorophore.
In order to detect the activation of III-3 by modified Pepper, base-modified Pepper-3 was synthesized (SEQ ID NO: 6, the underlined nucleotides in […] GGCC contain deoxyribonucleotide bases) and Pepper-4 (SEQ ID NO: 7, the underlined nucleotides in […] GGGCC contain 2′-F modification) (synthesized by Shanghai GenePharma Co., Ltd), which contain deoxyribonucleotides replacement (shaded bases in FIG. 5A) or 2′-F modification (shaded bases in FIG. 5B) in the stem-loop region of Pepper. Detection of the fluorescence activation of III-3 fluorophore by these modified Peppers was carried out according to the commonly used experimental method (5).

[4] = Binding constant of Pepper and III-3; settings: 2 nM F30-Pepper-1 with different concentrations of III-3
Protocol: In order to detect the binding constant of Pepper and III-3, 2 nM F30-Pepper-1 was incubated with different concentrations of III-3 and their fluorescence was determined.

[5] = Native PAGE oligomerization identification; settings: F30-Broccoli and F30-2dBroccoli as controls
Source text: In order to detect whether Pepper binds to III-3 in the form of monomer or polymer, F30-Pepper-1 was identified by the Native PAGE using the monomeric F30-Broccoli (SEQ ID NO: 4) and F30-2dBroccoli (SEQ ID NO: 5) (Filonov et al. Journal of the American Chemical Society 2014. 136: 16299-16308; Filonov et al. Chemistry & biology 2015. 22: 649-660) as the controls. The fluorescence imaging result was compared with the staining result by SYBR Gold (universal nucleic acid dye that was purchased from Invitrogen).

[6] = Thermostability of Pepper (fluorescence after 5 minutes at different temperatures); assay type: physicochemical; settings: 1 μM aptamer with 10 μM fluorophore (III-3 for F30-Pepper-1, DFHBI-1T for F30-Broccoli), 5 minutes at each temperature
Protocol: In order to test the thermostability of Pepper, 10 μM III-3 was incubated with 1 μM F30-Pepper-1, and then was placed at different temperatures for 5 minutes before the fluorescence was determined. 10 μM DFHBI-1T was incubated with 1 μM F30-Broccoli to be as the control.

[7] = RNA extraction and purification with Mal-III-3 beads, in-gel fluorescence; settings: gel incubated with 5 μM III-3 for 30 min
Protocol: In order to use Pepper for RNA extraction and purification, the pCDNA3.1 hygro(+)-TagBFP-4Pepper-7 and pCDNA3.1 hygro(+)-mCherry-4Pepper-7 plasmids in Example 12 were transfected into COS-7 cells, respectively. 24 hours after transfection, the cells were collected and the total RNA of the cells was extracted using the Easyp Super Total RNA Extraction Kit (Promega). The extracted total RNA was dissolved in buffer containing 40 mM HEPES, pH 7.4, 125 mM KCl, 5 mM MgCl2. The RNA was incubated at 70° C. for 10 min and placed at room temperature for more than 30 min.
500 μL activated Thiol Sepharose 4B (GE Healthcare) was washed twice with 500 μL PBS, and then was incubated with PBS containing 10 mM TCEP (Sigma) for 1 h at room temperature. After washing twice with 500 μL PBS, maleamide conjugated III-3 fluorophore (Mal-III-3) was added to react for 30 min at room temperature, and was washed three times with 500 μL PBS. The treated total RNA was incubated with the treated beads at room temperature. After 30 minutes, the mixture was centrifuged at 4000 rpm for 2 minutes, and the supernatant was discarded. […]
The recovered RNA was validated by electrophoresis. The gel was incubated with buffer containing 5 μM III-3 in 40 mM HEPES, pH 7.4, 125 mM KCl, and 5 mM MgCl2 for 30 min, and the fluorescence of 4Pepper-III-3 in the gel was detected.

CN(CCO)c1ccc(/C=C(\C#N)c2ccc(C#N)cc2)cc1 [III-3]
fluorescent labeling of RNA in bacteria [1]: bright yellow-green fluorescence only when F30-Pepper-1 was expressed and in the presence of III-3
RNA labeling in yeast cells [2]: bright yellow-green fluorescence only when F30-Pepper-1 was expressed and in the presence of III-3

B1: F30-Pepper-1: RNA aptamer, Pepper-1 in F30 scaffold RNA, SEQ ID NO: 2 (nucleic acid)
chain: UUGCCAUGUGUAUGUGGGUUCGCCCACAUACUCUGAUGAUCCCCAAUCGUGGCGUGUCGGCCUGCUUCGGCAGGCACUGGCGCCGGGAUCAUUCAUGGCAA
modifications: RNA, backbone not given here
Activation folds ([3]; Activation of III-3 by Pepper mutants with multiple mutations): 3600 folds
Activation folds ([3]; Activation of III-3 by Pepper mutants with single mutation): 3600 folds
Kd [4]: 3.5 nM
form in which aptamer binds III-3 (monomer or polymer) [5]: monomer
Tm [6]: 55 °C

B2: F30-Broccoli: reported monomeric Broccoli aptamer in F30 scaffold, SEQ ID NO: 4, control (nucleic acid)
chain: UUGCCAUGUGUAUGUGGGUUCGCCCACAUACUCUGAUGAUCCAGACGGUCGGGUCCAGAUAUUCGUAUCUGUCGAGUAGAGUGUGGGCUGGAUCAUUCAUGGCAA
modifications: listed as RNA, further chemistry not given here
Tm [6]: 48 °C

B3: mCherry-4Pepper: mCherry mRNA fused with 4Pepper-7, SEQ ID No: 26 (nucleic acid)
chain: AUGGUGAGCAAGGGCGAGGAGGAUAACAUGGCCAUCAUCAAGGAGUUCAUGCGCUUCAAGGUGCACAUGGAGGGCUCCGUGAACGGCCACGAGUUCGAGAUCGAGGGCGAGGGCGAGGGCCGCCCCUACGAGGGCACCCAGACCGCCAAGCUGAAGGUGACCAAGGGUGGCCCCCUGCCCUUCGCCUGGGACAUCCUGUCCCCUCAGUUCAUGUACGGCUCCAAGGCCUACGUGAAGCACCCCGCCGACAUCCCCGACUACUUGAAGCUGUCCUUCCCCGAGGGCUUCAAGUGGGAGCGCGUGAUGAACUUCGAGGACGGCGGCGUGGUGACCGUGACCCAGGACUCCUCCCUGCAGGACGGCGAGUUCAUCUACAAGGUGAAGCUGCGCGGCACCAACUUCCCCUCCGACGGCCCCGUAAUGCAGAAGAAGACCAUGGGCUGGGAGGCCUCCUCCGAGCGGAUGUACCCCGAGGACGGCGCCCUGAAGGGCGAGAUCAAGCAGAGGCUGAAGCUGAAGGACGGCGGCCACUACGACGCUGAGGUCAAGACCACCUACAAGGCCAAGAAGCCCGUGCAGCUGCCCGGCGCCUACAACGUCAACAUCAAGUUGGACAUCACCUCCCACAACGAGGACUACACCAUCGUGGAACAGUACGAACGCGCCGAGGGCCGCCACUCCACCGGCGGCAUGGACGAGCUGUACAAGUAACUCGCUAGAGCAUGGUUAAGCUUCCCACGGAGGAUCCCCAAUCGUGGCGUGUCGGCCUCUCCCAAUCGUGGCGUGUCGGCCUCUCCCAAUCGUGGCGUGUCGGCCUCUCCCAAUCGUGGCGUGUCGGCCUCUCUUCGGAGAGGCACUGGCGCCGGAGAGGCACUGGCGCCGGAGAGGCACUGGCGCCGGAGAGGCACUGGCGCCGGGAUCCUCCGUGGG
in-gel fluorescence of recovered RNA [7]: bright Pepper-III-3 fluorescence signals

B4: TagBFP-4Pepper: TagBFP mRNA fused with 4Pepper-7, SEQ ID No: 27 (nucleic acid)
chain: AUGAGCGAGCUGAUUAAGGAGAACAUGCACAUGAAGCUGUACAUGGAGGGCACCGUGGACAACCAUCACUUCAAGUGCACAUCCGAGGGCGAAGGCAAGCCCUACGAGGGCACCCAGACCAUGAGAAUCAAGGUGGUCGAGGGCGGCCCUCUCCCCUUCGCCUUCGACAUCCUGGCUACUAGCUUCCUCUACGGCAGCAAGACCUUCAUCAACCACACCCAGGGCAUCCCCGACUUCUUCAAGCAGUCCUUCCCUGAGGGCUUCACAUGGGAGAGAGUCACCACAUACGAAGACGGGGGCGUGCUGACCGCUACCCAGGACACCAGCCUCCAGGACGGCUGCCUCAUCUACAACGUCAAGAUCAGAGGGGUGAACUUCACAUCCAACGGCCCUGUGAUGCAGAAGAAAACACUCGGCUGGGAGGCCUUCACCGAGACGCUGUACCCCGCUGACGGCGGCCUGGAAGGCAGAAACGACAUGGCCCUGAAGCUCGUGGGCGGGAGCCAUCUGAUCGCAAACAUCAAGACCACAUAUAGAUCCAAGAAACCCGCUAAGAACCUCAAGAUGCCUGGCGUCUACUAUGUGGACUACAGACUGGAAAGAAUCAAGGAGGCCAACAACGAGACCUACGUCGAGCAGCACGAGGUGGCAGUGGCCAGAUACUGCGACCUCCCUAGCAAACUGGGGCACAAGCUCAAUUAACACUCGCUAGAGCAUGGUUGGUACCGUAGUCAAGCUUCCCACGGAGGAUCCCCAAUCGUGGCGUGUCGGCCUCUCCCAAUCGUGGCGUGUCGGCCUCUCCCAAUCGUGGCGUGUCGGCCUCUCCCAAUCGUGGCGUGUCGGCCUCUCUUCGGAGAGGCACUGGCGCCGGAGAGGCACUGGCGCCGGAGAGGCACUGGCGCCGGAGAGGCACUGGCGCCGGGAUCCUCCGUGGG
in-gel fluorescence of recovered RNA [7]: bright Pepper-III-3 fluorescence signals
